The target in the assay is PcoAA14A_dCTR, disordered C-terminal region alone of PcoAA14A (Pycnoporus coccineus). In words: SEC-MALLS.

In general, stoichiometry N refers to the number of molecules, sites or subunits per partner or assembly. As to “PcoAA14A_dCTR, disordered C-terminal region alone of PcoAA14A (domain or fragment)”, the stoichiometry N turned out to be 2.

The record behind these values is article doi:10.1101/2025.11.04.686606.
